Experiments:
[1] = target: T1, histidine-tagged human Siglec-7 (NovoProtein) (human, UniProt Q9Y286 19-353); assay: BLI, antibody captured
T1 construct: Bought protein; also called recombinant human Siglec-7; recombinant Siglec-7; not shown: histidine tag
Procedure: In this assay, the humanized antibodies were compared directly to S7AB. Briefly, the antibodies were captured on anti-human or anti-mouse IgG Fc Biosensors (Pall ForteBio). Varying concentrations (0-100 nM) of histidine-tagged human Siglec-7 (NovoProtein) were then bound to the captured anti-Siglec-7 surface (200 s association time, 900 s dissociation time). Multi-concentration kinetic analysis was performed using a 1:1 interaction model to extract association and dissociation rate constants (kₐ and kd, respectively) for each antibody. Apparent affinity constants (KD) were calculated from the ratio kd/kₐ.
The affinities of S7AB-H8 and variants S7AB-H8.1 through S7AB-H8.45 for human Siglec-7 were measured by BioLayer Interferometry according to the method described in Example 1 above.

[2] = target: human Siglec-7 on primary human monocyte-derived dendritic cells (human, UniProt Q9Y286 19-467); assay: cell-based or functional assay
Chain of human Siglec-7 on primary human monocyte-derived dendritic cells (Q9Y286 19-467): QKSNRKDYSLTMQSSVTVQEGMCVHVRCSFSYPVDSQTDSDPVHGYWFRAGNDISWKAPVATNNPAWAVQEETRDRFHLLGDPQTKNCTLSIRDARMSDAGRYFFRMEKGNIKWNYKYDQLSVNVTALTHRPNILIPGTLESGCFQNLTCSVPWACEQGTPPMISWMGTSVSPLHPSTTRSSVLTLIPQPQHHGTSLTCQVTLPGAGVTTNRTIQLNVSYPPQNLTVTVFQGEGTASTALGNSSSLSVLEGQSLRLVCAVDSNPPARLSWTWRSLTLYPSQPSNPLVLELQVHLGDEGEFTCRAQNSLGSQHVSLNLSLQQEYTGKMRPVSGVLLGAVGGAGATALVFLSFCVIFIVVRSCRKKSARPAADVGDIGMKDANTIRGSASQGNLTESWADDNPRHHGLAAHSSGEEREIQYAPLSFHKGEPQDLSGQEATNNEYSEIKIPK

T1 sequence (Q9Y286 19-353 limits assumed): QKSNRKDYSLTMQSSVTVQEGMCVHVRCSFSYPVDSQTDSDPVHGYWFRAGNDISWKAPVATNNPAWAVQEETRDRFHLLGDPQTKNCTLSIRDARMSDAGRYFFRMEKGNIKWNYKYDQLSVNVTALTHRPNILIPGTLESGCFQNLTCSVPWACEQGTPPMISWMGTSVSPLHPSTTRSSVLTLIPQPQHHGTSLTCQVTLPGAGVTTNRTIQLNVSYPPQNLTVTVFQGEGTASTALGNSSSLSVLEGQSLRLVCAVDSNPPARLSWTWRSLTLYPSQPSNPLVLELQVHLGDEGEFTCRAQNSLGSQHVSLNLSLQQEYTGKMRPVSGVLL

| Binder | Kd [1] [nM] | fold improvement over S7AB-H8 [1] [fold] | koff [1] [s⁻¹] | kon [1] [M⁻¹ s⁻¹] | Fold increase in potency compared to AB-H8 [2] [fold] | Fold increase in potency compared to Chimeric Ab [2] [fold] | Maximal downregulation (% Siglec-7 remaining) [2] [%] | Receptor downregulation, (EC50) (pM) [2] [pM] |
| --- | --- | --- | --- | --- | --- | --- | --- | --- |
| S7AB-H8.16 (antibody, V domains shown) VH: QVQLVQSGAEVKKPGASVKVSCKASGYAFTETWMNWVRQAPGQGLEWIGRIFPGLGHTNYAQKFQGRATLTEDTSTSTAYMELSSLRSEDTAVYYCARDYSDYYFDYWGQGTLVTVSS VL: DIQMTQSPSSLSASVGDRVTITCRGSQDTNTYLNWYQQKPGKAPKLLIYYTSRLHSGVPSRFSGSGSGTDYTLTISSLQPEDFATYYCQQGNTLPWTFGQGTKLEIK | 2.53 | 0.4 | 0.000165 | 65400 | 1 | 2.9 | 10.1 | 348 |
| S7AB-H8.19 (antibody, V domains shown) VH: QVQLVQSGAEVKKPGASVKVSCKASGYAFTAAWMNWVRQAPGQGLEWIGRIFPGLGHTNYAQKFQGRATLTEDTSTSTAYMELSSLRSEDTAVYYCARDYSDYYFDYWGQGTLVTVSS VL: DIQMTQSPSSLSASVGDRVTITCRGSQDTNTYLNWYQQKPGKAPKLLIYYTSRLHSGVPSRFSGSGSGTDYTLTISSLQPEDFATYYCQQGNTLPWTFGQGTKLEIK | 0.898 | 1.2 | 0.000112 | 125000 | 3.5 | 10.5 | 6.7 | 97.8 |
| S7AB-H8.20 (antibody, V domains shown) VH: QVQLVQSGAEVKKPGASVKVSCKASGYAFTEAWMNWVRQAPGQGLEWIGRIFPGYGHTNYAQKFQGRATLTEDTSTSTAYMELSSLRSEDTAVYYCARDYSDYYFDYWGQGTLVTVSS VL: DIQMTQSPSSLSASVGDRVTITCRGSQDTNTYLNWYQQKPGKAPKLLIYYTSRLHSGVPSRFSGSGSGTDYTLTISSLQPEDFATYYCQQGNTLPWTFGQGTKLEIK | 1.81 | 0.6 | 0.000145 | 79900 | 1.4 | 4.2 | 10.6 | 245 |
| S7AB-H8.17 (antibody, V domains shown) VH: QVQLVQSGAEVKKPGASVKVSCKASGYAFTMAWMNWVRQAPGQGLEWIGRIFPGYGHTNYAQKFQGRATLTEDTSTSTAYMELSSLRSEDTAVYYCARDYSDYYFDYWGQGTLVTVSS VL: DIQMTQSPSSLSASVGDRVTITCRGSQDTNTYLNWYQQKPGKAPKLLIYYTSRLHSGVPSRFSGSGSGTDYTLTISSLQPEDFATYYCQQGNTLPWTFGQGTKLEIK | 0.814 | 1.3 | 0.000104 | 128000 | 2.9 | 8.8 | 8 | 116 |
| S7AB-H8.18 (antibody, V domains shown) VH: QVQLVQSGAEVKKPGASVKVSCKASGYAFTGYWMNWVRQAPGQGLEWIGRIFPGLGHTNYAQKFQGRATLTEDTSTSTAYMELSSLRSEDTAVYYCARDYSDYYFDYWGQGTLVTVSS VL: DIQMTQSPSSLSASVGDRVTITCRGSQDTNTYLNWYQQKPGKAPKLLIYYTSRLHSGVPSRFSGSGSGTDYTLTISSLQPEDFATYYCQQGNTLPWTFGQGTKLEIK | 0.712 | 1.5 | 0.000142 | 199000 | 5 | 15.2 | 18.9 | 67.3 |

Source: US20210246204A1 (Alector, published 2021)
